# Assay results as given in the supplement of paper PMC10567573.
# B1: ATE1 (parent)
# chain: DYFPSEDFYRCGYCKNESGSRSNG
# Variants of: B1
# Experiment: protein stability index of a GFP-peptide fusion (GPS, HEK-293T) (PSI 1-6); higher = more stable
# Conditions: c terminus: a fixed tail appended
# 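Note: lentivirally expressed fusions sorted by FACS into six bins by GFP to DsRed ratio, PSI derived from sequencing read proportions per bin multiplied by bin number.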
row,Variant,protein stability index
1,DYFPSEDFYRCGYCKNESGTRSNG [S20T],1.88
2,DYFPSEDFYRCGYCINESGSRSNG [K15I],2.18
3,DYFPSEDFYRCGYCPNESGSRSNG [K15P],3.41
4,DYFPSEDFYRCGYCMNESGSRSNG [K15M],3.08
5,DYFPSEDFYRCGYCANESGSRSNG [K15A],1.59
6,DYFPSEDFYRCGYCLNESGSRSNG [K15L],1.82
7,DYFPSEDFYRCGYCGNESGSRSNG [K15G],1.95
8,DYFPTEDFYRCGYCKNESGSRSNG [S5T],2.15
9,DYFPYEDFYRCGYCKNESGSRSNG [S5Y],2.83
10,DYFPVEDFYRCGYCKNESGSRSNG [S5V],2.16
11,DYFPHEDFYRCGYCKNESGSRSNG [S5H],1.98
12,DYFPFEDFYRCGYCKNESGSRSNG [S5F],2.01
13,DYFPPEDFYRCGYCKNESGSRSNG [S5P],2.32
14,DYFPMEDFYRCGYCKNESGSRSNG [S5M],1.42
15,DYFPIEDFYRCGYCKNESGSRSNG [S5I],1.88
16,DYFPNEDFYRCGYCKNESGSRSNG [S5N],1.61
17,DYFPDEDFYRCGYCKNESGSRSNG [S5D],2.46
18,DYFPSNDFYRCGYCKNESGSRSNG [E6N],1.68
19,DYFPSLDFYRCGYCKNESGSRSNG [E6L],1.85
20,DYFPSRDFYRCGYCKNESGSRSNG [E6R],1.53
21,DYFPSADFYRCGYCKNESGSRSNG [E6A],1.81
22,DYFPSMDFYRCGYCKNESGSRSNG [E6M],2.38
23,DYFPSYDFYRCGYCKNESGSRSNG [E6Y],1.74
24,DYFPSCDFYRCGYCKNESGSRSNG [E6C],1.85

row,Variant,protein stability index
1,DYFPSVDFYRCGYCKNESGSRSNG [E6V],1.45
2,DYFPSKDFYRCGYCKNESGSRSNG [E6K],1.35
3,DYFPSPDFYRCGYCKNESGSRSNG [E6P],2.24
4,DYFPSEDFYRCGYAKNESGSRSNG [C14A],4.24
5,DYFPSEDFYRCGYWKNESGSRSNG [C14W],3.43
6,DYFPSEDFYRCGYPKNESGSRSNG [C14P],3.53
7,DYFPSEDFYRCGYGKNESGSRSNG [C14G],3.81
8,DYFPSEDFYRCGYFKNESGSRSNG [C14F],3.44
9,DYFPSEDFYRCGYMKNESGSRSNG [C14M],4.25
10,DYFPSEDFYRCGYIKNESGSRSNG [C14I],3.97
11,DYFPSEDFYRCGYLKNESGSRSNG [C14L],3.28
12,DYFPSEDFYRCGYRKNESGSRSNG [C14R],3.8
13,DYFPSEDFYRCGYCKNESGSRSNH [G24H],2.04
14,DYFPSEDFYRCGYCKNESGSRSNI [G24I],2.34
15,DYFPSEDFYRCGYCKNESGSRSNS [G24S],1.62
16,DYFPSEDFYRCGYCKNESGSRSNW [G24W],1.78
17,DYFPSEDFYRCGYCKNESGSRSNC [G24C],1.93
18,DYFPSEDFYRCGYCKNESGSRSNE [G24E],2.67
19,DYFPSEDFYRCGYCKNESGSRSND [G24D],2.26
20,DYFPSEDFYRCGYCKNESGSRSNN [G24N],2.09
21,DKFPSEDFYRCGYCKNESGSRSNG [Y2K],2.38
22,DFFPSEDFYRCGYCKNESGSRSNG [Y2F],1.82
23,DHFPSEDFYRCGYCKNESGSRSNG [Y2H],2.37
24,DSFPSEDFYRCGYCKNESGSRSNG [Y2S],2.44

row,Variant,protein stability index
1,DGFPSEDFYRCGYCKNESGSRSNG [Y2G],2.56
2,DWFPSEDFYRCGYCKNESGSRSNG [Y2W],1.24
3,DDFPSEDFYRCGYCKNESGSRSNG [Y2D],2.53
4,DRFPSEDFYRCGYCKNESGSRSNG [Y2R],4.56
5,DIFPSEDFYRCGYCKNESGSRSNG [Y2I],2.09
6,DYFPSEDFYRCGYCKNYSGSRSNG [E17Y],1.49
7,DYFPSEDFYRCGYCKNFSGSRSNG [E17F],1.71
8,DYFPSEDFYRCGYCKNASGSRSNG [E17A],1.74
9,DYFPSEDFYRCGYCKNPSGSRSNG [E17P],1.37
10,DYFPSEDFYRCGYCKNVSGSRSNG [E17V],1.4
11,DYFPSEDFYRCGYCKNMSGSRSNG [E17M],2.45
12,DYFPSEDFYRCGYCKNTSGSRSNG [E17T],2.77
13,DYFPSEDFYRCGYCKNRSGSRSNG [E17R],2.78
14,DYFPSEDFYRCGYCKNNSGSRSNG [E17N],2
15,DYFPSEDFYRCGYCKNESGSRSDG [N23D],2.1
16,DYFPSEDFYRCGYCKNESGSRSTG [N23T],2.1
17,DYFPSEDFYRCGYCKNESGSRSIG [N23I],1.52
18,DYFPSEDFYRCGYCKNESGSRSSG [N23S],2.32
19,DYFPSEDFYRCGYCKNESGSRSQG [N23Q],2.53
20,DYFPSEDFYRCGYCKNESGSRSWG [N23W],2.6
21,DYFPSEDFYRCDYCKNESGSRSNG [G12D],3.03
22,DYFPSEDFYRCLYCKNESGSRSNG [G12L],2.63
23,DYFPSEDFYRCWYCKNESGSRSNG [G12W],3.35
24,DYFPSEDFYRCVYCKNESGSRSNG [G12V],2.4

row,Variant,protein stability index
1,DYFPSEDFYRCRYCKNESGSRSNG [G12R],4.05
2,DYFPSEDFYRCAYCKNESGSRSNG [G12A],3.25
3,DYFPSEDFYRCNYCKNESGSRSNG [G12N],2.69
4,DYFPSEDFYRCIYCKNESGSRSNG [G12I],2.84
5,DYFPSEDFYRCYYCKNESGSRSNG [G12Y],2.49
6,DYFPSEDFYRCTYCKNESGSRSNG [G12T],2.99
7,DYFPSEDFYRCKYCKNESGSRSNG [G12K],2.68
8,DYFPSEDFYRCPYCKNESGSRSNG [G12P],1.93
9,DYFPSEDFYRCGYCKNECGSRSNG [S18C],1.08
10,DYFPSEDFYRCGYCKNEKGSRSNG [S18K],2.33
11,DYFPSEDFYRCGYCKNEYGSRSNG [S18Y],1.69
12,DYFPSEDFYRCGYCKNELGSRSNG [S18L],1.84
13,DYFPSEDFYRCGYCKNEEGSRSNG [S18E],2.53
14,DYFPSEDFYRCGYCKNERGSRSNG [S18R],1.68
15,DYFPSEDFYRCGYCKNEAGSRSNG [S18A],2.67
16,DYFPSEDFYRCGYCKNENGSRSNG [S18N],1.35
17,DYFPSEDFYRHGYCKNESGSRSNG [C11H],4.4
18,DYFPSEDFYRSGYCKNESGSRSNG [C11S],3.54
19,DYFPSEDFYRAGYCKNESGSRSNG [C11A],3.73
20,DYFPSEDFYRQGYCKNESGSRSNG [C11Q],4.36
21,DYFPSEDFYRGGYCKNESGSRSNG [C11G],4.36
22,DYFPSEDFYRVGYCKNESGSRSNG [C11V],3.73
